The subject of this data set is Escherichia coli TOP10. The experiment in a line: shrunken log2 fold change of peptide-encoding DNA abundance (4.5 h post-induction vs induction); higher = less antimicrobial activity (less host growth inhibition). The note with it: time post-induction: 4.5 h; library: site-saturation at positions 5, 18, 19, 20.

Here are results for 125 sequences from the supplement of paper PMC9112550, “Optimization of the antimicrobial peptide Bac7 by deep mutational scanning” (BMC Biology, 2022).
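Also: peptides expressed intracellularly from a pBAD plasmid library in pooled LB shake-flask culture, induced with 0.3% L-arabinose, DNA abundance read by NGS, three biological replicates, DESeq2 with apeglm shrinkage.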

On to RRIRERPPRLPRPRPRPKCDPRP, for which the “shrunken log2 fold change” value was 0.175.

For RRIRCRPPRLPRPRPRPKTDPRP, the “shrunken log2 fold change” value is -0.0884.

Turning to RRIRIRPPRLPRPRPRPNWIPRP, the “shrunken log2 fold change” value was -0.565.

RRIRARPPRLPRPRPRPPWAPRP: the “shrunken log2 fold change” value turned out to be 0.576.

With RRIRGRPPRLPRPRPRPCWLPRP, the “shrunken log2 fold change” value was -0.0298.

Turning to RRIRMRPPRLPRPRPRPICMPRP, the “shrunken log2 fold change” value turned out to be 0.024.

Turning to RRIRLRPPRLPRPRPRPGLKPRP, the “shrunken log2 fold change” value was 0.12.

In the case of RRIRMRPPRLPRPRPRPLCEPRP, the “shrunken log2 fold change” value came to 0.653.

Consider RRIRARPPRLPRPRPRPAFPPRP, for which the “shrunken log2 fold change” value turned out to be 0.532.

In the case of RRIRTRPPRLPRPRPRPMSTPRP, the “shrunken log2 fold change” value is -0.0153.

For the sequence RRIRFRPPRLPRPRPRPAVWPRP, the “shrunken log2 fold change” value worked out at 0.402.

Turning to RRIRIRPPRLPRPRPRPPRFPRP, the “shrunken log2 fold change” value was found to be 0.0593.

In the case of RRIRSRPPRLPRPRPRPESDPRP, the “shrunken log2 fold change” value is 0.306.

As for RRIRRRPPRLPRPRPRPCAAPRP, the “shrunken log2 fold change” value stood at 0.743.

For RRIRKRPPRLPRPRPRPGHMPRP, the “shrunken log2 fold change” value was found to be 0.177.

As for RRIRERPPRLPRPRPRPWAYPRP, the “shrunken log2 fold change” value was -0.552.

As to RRIRVRPPRLPRPRPRPKNVPRP, the “shrunken log2 fold change” value was -0.0901.

RRIRTRPPRLPRPRPRPVNPPRP: the “shrunken log2 fold change” value is -0.0713.

In the case of RRIRVRPPRLPRPRPRPMQLPRP, the “shrunken log2 fold change” value is -0.0252.

Consider RRIRLRPPRLPRPRPRPFLWPRP, for which the “shrunken log2 fold change” value was -0.314.

Consider RRIRMRPPRLPRPRPRPQDFPRP, for which the “shrunken log2 fold change” value was 0.0427.

As for RRIRRRPPRLPRPRPRPPTKPRP, the “shrunken log2 fold change” value came to 0.52.

Consider RRIRGRPPRLPRPRPRPGWVPRP, for which the “shrunken log2 fold change” value amounted to 0.892.

On to RRIRERPPRLPRPRPRPVELPRP, for which the “shrunken log2 fold change” value was -0.0276.

With RRIRFRPPRLPRPRPRPSYCPRP, the “shrunken log2 fold change” value was -0.345.

RRIRQRPPRLPRPRPRPQDNPRP: the “shrunken log2 fold change” value is -0.304.

In the case of RRIRARPPRLPRPRPRPASRPRP, the “shrunken log2 fold change” value stood at 0.44.

For the sequence RRIRYRPPRLPRPRPRPEFMPRP, the “shrunken log2 fold change” value is -0.0255.

For RRIRFRPPRLPRPRPRPENAPRP, the “shrunken log2 fold change” value was found to be 0.402.

RRIRCRPPRLPRPRPRPGFCPRP: the “shrunken log2 fold change” value came out at 0.124.

For RRIRLRPPRLPRPRPRPMGVPRP, the “shrunken log2 fold change” value was -0.0231.

As for RRIRARPPRLPRPRPRPAFHPRP, the “shrunken log2 fold change” value is -0.115.

For the sequence RRIRFRPPRLPRPRPRPCRIPRP, the “shrunken log2 fold change” value is -2.21.

For the sequence RRIRLRPPRLPRPRPRPAFMPRP, the “shrunken log2 fold change” value is -0.112.

As for RRIRKRPPRLPRPRPRPIALPRP, the “shrunken log2 fold change” value came to 0.0143.

Take RRIRSRPPRLPRPRPRPRGGPRP: the “shrunken log2 fold change” value worked out at 0.84.

On to RRIRVRPPRLPRPRPRPHKTPRP, for which the “shrunken log2 fold change” value was -0.127.

RRIRLRPPRLPRPRPRPHRVPRP: the “shrunken log2 fold change” value is 0.0399.

RRIRRRPPRLPRPRPRPEGFPRP: the “shrunken log2 fold change” value amounted to 0.151.

Consider RRIRHRPPRLPRPRPRPCIIPRP, for which the “shrunken log2 fold change” value is -0.0445.

On to RRIRTRPPRLPRPRPRPLLYPRP, for which the “shrunken log2 fold change” value was -0.444.

In the case of RRIRLRPPRLPRPRPRPQGWPRP, the “shrunken log2 fold change” value is 0.495.

RRIRMRPPRLPRPRPRPGATPRP: the “shrunken log2 fold change” value was found to be 1.38.

Regarding RRIRCRPPRLPRPRPRPVQAPRP, the “shrunken log2 fold change” value stood at 0.224.

As for RRIRWRPPRLPRPRPRPPREPRP, the “shrunken log2 fold change” value turned out to be 0.808.

As for RRIRWRPPRLPRPRPRPITLPRP, the “shrunken log2 fold change” value was 0.107.

In the case of RRIRYRPPRLPRPRPRPHGMPRP, the “shrunken log2 fold change” value is -0.922.

For RRIRNRPPRLPRPRPRPIMLPRP, the “shrunken log2 fold change” value was -0.482.

Turning to RRIRFRPPRLPRPRPRPGYYPRP, the “shrunken log2 fold change” value was -0.195.

Regarding RRIRWRPPRLPRPRPRPIKAPRP, the “shrunken log2 fold change” value was 0.00489.

As for RRIRYRPPRLPRPRPRPRWEPRP, the “shrunken log2 fold change” value is -0.0931.

For RRIRVRPPRLPRPRPRPMKVPRP, the “shrunken log2 fold change” value was -0.194.

Regarding RRIRTRPPRLPRPRPRPTFKPRP, the “shrunken log2 fold change” value was -0.227.

RRIRVRPPRLPRPRPRPDQFPRP: the “shrunken log2 fold change” value is -0.0568.

Take RRIRTRPPRLPRPRPRPHHNPRP: the “shrunken log2 fold change” value was -0.795.

Turning to RRIRQRPPRLPRPRPRPDYTPRP, the “shrunken log2 fold change” value is -0.0424.

As for RRIRERPPRLPRPRPRPVKCPRP, the “shrunken log2 fold change” value is -0.069.

In the case of RRIRARPPRLPRPRPRPHFKPRP, the “shrunken log2 fold change” value came to 0.00608.

For the sequence RRIRKRPPRLPRPRPRPDYGPRP, the “shrunken log2 fold change” value came out at 0.111.

Take RRIRIRPPRLPRPRPRPVVIPRP: the “shrunken log2 fold change” value is -0.307.

For the sequence RRIRPRPPRLPRPRPRPVWFPRP, the “shrunken log2 fold change” value is 0.0968.

With RRIRERPPRLPRPRPRPTHAPRP, the “shrunken log2 fold change” value worked out at 0.332.

Turning to RRIRRRPPRLPRPRPRPFSWPRP, the “shrunken log2 fold change” value is -0.469.

Regarding RRIRYRPPRLPRPRPRPFELPRP, the “shrunken log2 fold change” value is -0.529.

As for RRIRNRPPRLPRPRPRPPVCPRP, the “shrunken log2 fold change” value is 0.126.

Turning to RRIRFRPPRLPRPRPRPRNPPRP, the “shrunken log2 fold change” value came out at 0.118.

As to RRIRVRPPRLPRPRPRPLIVPRP, the “shrunken log2 fold change” value was -0.335.

On to RRIRTRPPRLPRPRPRPIHQPRP, for which the “shrunken log2 fold change” value came out at 0.0323.

In the case of RRIRQRPPRLPRPRPRPLKIPRP, the “shrunken log2 fold change” value is -0.141.

Take RRIRKRPPRLPRPRPRPQFGPRP: the “shrunken log2 fold change” value was 0.0962.

In the case of RRIRMRPPRLPRPRPRPRSHPRP, the “shrunken log2 fold change” value was found to be 0.407.

With RRIRARPPRLPRPRPRPAVRPRP, the “shrunken log2 fold change” value stood at 0.545.

Turning to RRIRARPPRLPRPRPRPNSIPRP, the “shrunken log2 fold change” value is -0.125.

For RRIRIRPPRLPRPRPRPLAIPRP, the “shrunken log2 fold change” value is -1.11.

As to RRIRTRPPRLPRPRPRPLDLPRP, the “shrunken log2 fold change” value is 0.0209.

RRIRPRPPRLPRPRPRPLFHPRP: the “shrunken log2 fold change” value is -0.131.

Regarding RRIRHRPPRLPRPRPRPVSWPRP, the “shrunken log2 fold change” value was 0.442.

As for RRIRLRPPRLPRPRPRPAATPRP, the “shrunken log2 fold change” value stood at 0.379.

Consider RRIRFRPPRLPRPRPRPIWFPRP, for which the “shrunken log2 fold change” value is -0.129.

For RRIRPRPPRLPRPRPRPIAHPRP, the “shrunken log2 fold change” value came to 0.125.

Turning to RRIRCRPPRLPRPRPRPMTLPRP, the “shrunken log2 fold change” value is -0.135.

As for RRIRCRPPRLPRPRPRPVCTPRP, the “shrunken log2 fold change” value was found to be 0.0452.

With RRIRQRPPRLPRPRPRPDCFPRP, the “shrunken log2 fold change” value was found to be 0.291.

Regarding RRIRMRPPRLPRPRPRPNKWPRP, the “shrunken log2 fold change” value was determined as 0.079.

As to RRIRPRPPRLPRPRPRPNQSPRP, the “shrunken log2 fold change” value is -0.247.

For RRIRRRPPRLPRPRPRPYENPRP, the “shrunken log2 fold change” value is -0.374.

For RRIRWRPPRLPRPRPRPYDLPRP, the “shrunken log2 fold change” value was -0.021.

As to RRIRTRPPRLPRPRPRPPSDPRP, the “shrunken log2 fold change” value was 0.498.

In the case of RRIRDRPPRLPRPRPRPIIQPRP, the “shrunken log2 fold change” value is -0.0678.

RRIRIRPPRLPRPRPRPGCYPRP: the “shrunken log2 fold change” value was -0.715.

As to RRIRPRPPRLPRPRPRPCCDPRP, the “shrunken log2 fold change” value is 0.249.

Take RRIRQRPPRLPRPRPRPCPMPRP: the “shrunken log2 fold change” value is -0.203.

On to RRIRNRPPRLPRPRPRPFRVPRP, for which the “shrunken log2 fold change” value is -0.17.

As to RRIRLRPPRLPRPRPRPYQSPRP, the “shrunken log2 fold change” value is -0.524.

In the case of RRIRDRPPRLPRPRPRPYWVPRP, the “shrunken log2 fold change” value was -0.129.

As for RRIRTRPPRLPRPRPRPPLVPRP, the “shrunken log2 fold change” value was found to be 0.184.

As for RRIRPRPPRLPRPRPRPQKGPRP, the “shrunken log2 fold change” value was -0.0684.

With RRIRRRPPRLPRPRPRPWAFPRP, the “shrunken log2 fold change” value was 0.00699.

For the sequence RRIRPRPPRLPRPRPRPGESPRP, the “shrunken log2 fold change” value was -0.0364.

For RRIRCRPPRLPRPRPRPWFTPRP, the “shrunken log2 fold change” value is -0.879.

Turning to RRIRRRPPRLPRPRPRPIELPRP, the “shrunken log2 fold change” value was -0.192.

In the case of RRIRHRPPRLPRPRPRPGMDPRP, the “shrunken log2 fold change” value is -0.0518.

For RRIRTRPPRLPRPRPRPDTKPRP, the “shrunken log2 fold change” value was -0.212.

On to RRIRWRPPRLPRPRPRPFPQPRP, for which the “shrunken log2 fold change” value was 0.0229.

As to RRIRERPPRLPRPRPRPTTGPRP, the “shrunken log2 fold change” value is -0.0235.

For RRIRRRPPRLPRPRPRPYQLPRP, the “shrunken log2 fold change” value is -0.234.

In the case of RRIRCRPPRLPRPRPRPRGRPRP, the “shrunken log2 fold change” value was 0.46.

Turning to RRIRIRPPRLPRPRPRPKLRPRP, the “shrunken log2 fold change” value came to 0.349.

Regarding RRIRRRPPRLPRPRPRPMLKPRP, the “shrunken log2 fold change” value came out at 0.0333.

For RRIRDRPPRLPRPRPRPFTSPRP, the “shrunken log2 fold change” value is -0.0273.

As for RRIRIRPPRLPRPRPRPVDFPRP, the “shrunken log2 fold change” value was -0.133.

For RRIRIRPPRLPRPRPRPEQEPRP, the “shrunken log2 fold change” value amounted to 0.0276.

Take RRIRFRPPRLPRPRPRPYLHPRP: the “shrunken log2 fold change” value is -0.454.

Regarding RRIRIRPPRLPRPRPRPYIEPRP, the “shrunken log2 fold change” value was -0.266.

In the case of RRIRRRPPRLPRPRPRPELHPRP, the “shrunken log2 fold change” value came out at 0.793.

For the sequence RRIRLRPPRLPRPRPRPRQPPRP, the “shrunken log2 fold change” value came out at 0.111.

For the sequence RRIRLRPPRLPRPRPRPQKNPRP, the “shrunken log2 fold change” value was -0.154.

As to RRIRTRPPRLPRPRPRPPDVPRP, the “shrunken log2 fold change” value is 0.176.

As to RRIRERPPRLPRPRPRPVKQPRP, the “shrunken log2 fold change” value was -0.0109.

RRIRLRPPRLPRPRPRPFDNPRP: the “shrunken log2 fold change” value is -0.0289.

As for RRIRWRPPRLPRPRPRPVFQPRP, the “shrunken log2 fold change” value was 0.183.

Take RRIRTRPPRLPRPRPRPRPYPRP: the “shrunken log2 fold change” value was -0.223.

Take RRIRHRPPRLPRPRPRPGAMPRP: the “shrunken log2 fold change” value amounted to 0.392.

With RRIRIRPPRLPRPRPRPWHQPRP, the “shrunken log2 fold change” value is -0.00186.

RRIRHRPPRLPRPRPRPDKWPRP: the “shrunken log2 fold change” value is -0.395.
